# Reference: US20160168253A1 (Hoffmann-La Roche, published 2016)
# B1: Mab 31 = Gantenerumab (INN) (antibody, human IgG1, V domains shown)
# VH: QVELVESGGGLVQPGGSLRLSCAASGFTFSSYAMSWVRQAPGKGLEWVSAINASGTRTYYADSVKGRFTISRDNSKNTLYLQMNSLRAEDTAVYYCARGKGNTHKPYGYVRYFDVWGQGTLVTVSS
# VL: DIVLTQSPATLSLSPGERATLSCRASQSVSSSYLAWYQQKPGQAPRLLIYGASSRATGVPARFSGSGSGTDFTLTISSLEPEDFATYYCLQIYNMPITFGQGTKVEIKR
# notes: Human IgG1 with kappa light chain; Id; No. 13; also called mAb31(HEK); naked anti-Aβ monoclonal antibody
# Biological target: T1, Aβ1-40 fibers (human)
# T1 construct: Coated on Maxisorp plates for 3 days at 37 C to produce fibrillar Abeta; also called fibrillar Aβ; fibrillar Abeta
# Test: ELISA on plate-coated fibrillar Aβ(1-40), detection with anti-human-IgG-HRP
# Experimental: Binding of fusion polypeptide to fibrillar Aβ was measured by an ELISA assay. Briefly, […] was coated at 7 μg/mL in PBS onto Maxisorp plates for 3 days at 37° C. to produce fibrillar Abeta, then dried for 3 h at RT. The plate was blocked with 1% Crotein C and 0.1% RSA in PBS (blocking buffer) for 1 h at RT, then washed once with wash buffer. Fusion polypeptides or controls were added at concentrations up to 100 nM in blocking buffer and incubated at 4° C. overnight. After 4 wash steps, constructs were detected by addition of anti-human-IgG-HRP (Jackson Immunoresearch) at 1:10,000 dilution in blocking buffer […], followed by 6 washes and incubation in TMB (Sigma). Absorbance was read out at 450 nm after stopping color development with 1 N HCl (see FIG. 1).
binder,measurement,value
B1,binding result,binds
